Experimental data as given in the supplement of paper PMC12764529.
± gives the half width of the 95% confidence interval.

Assays:
[1] = folding stability dG unfold from trypsin proteolysis; higher = more stable
In short: (§1)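 Sequencing followed digestion of designed mini-proteins with trypsin and chymotrypsin, each at 11 concentrations in threefold dilutions together with a no-protease condition. The mini-proteins were under 80 residues, had no cysteine, sat in a PA-tagged cDNA display construct, and were kept only if AlphaFold2 dimer inter-PAE was above 15. From the counts, Bayesian fitting gave K50, and unfolding free energy was derived against a sequence-predicted unfolded-state K50 and a shared folded-state K50, per protease or combined.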

[2] = folding stability dG unfold (combined trypsin and chymotrypsin); higher = more stable
In short: as §1

[3] = folding stability dG unfold from chymotrypsin proteolysis; higher = more stable
In short: as §1

Sequence	folding stability dG unfold [1]	folding stability dG unfold [2]	folding stability dG unfold [3]
SAGGFKIKNIDVERNPDNGWRTITVEFPGNGWKFQIQVPPDGGVKYEWYNNGEPQTYTIPADDLKDLSAGGS [r8_238_TrROS]	1 ± 0.06 kcal/mol	1.2 ± 0.08 kcal/mol	1.34 ± 0.082 kcal/mol
SAGGDEIAKEIANHAREQGYKVEVKVERDEDGMVKIDVEMSMPNGRRVTFSITINPDGIEIQSIEVTPSAGG [r13_203_TrROS]	2.65 ± 0.12 kcal/mol	3.97 ± 0.15 kcal/mol	4.41 ± 0.067 kcal/mol
SAGGSAGGSAGGSSTAVIRRPETGEEHTFDLPEDATEEDIRARLEAAGFPPGSEIVEIVESAGGSAGGSAGG [r7_70_JUSTAS]	1.21 ± 0.067 kcal/mol	1.66 ± 0.035 kcal/mol	1.91 ± 0.048 kcal/mol
SAGGSAGGSEVLEVVLPRPDGRLVLLRVDPEGRLALVVFPDGSVRVFEVESPEEAVQRVLDAESAGGSAGGS [r12_866_TrMRF]	1.92 ± 0.054 kcal/mol	2.41 ± 0.07 kcal/mol	2.6 ± 0.034 kcal/mol
SAGGSAGGSAMLENARPFPIDLPTKYRLRIVLPDGRVLELEYDPKSGVPRLRVVPVEEALKRSAGGSAGGSA [r18_247_TrMRF]	1.19 ± 0.012 kcal/mol	1.46 ± 0.036 kcal/mol	1.59 ± 0.033 kcal/mol
SAGGMKKYKIKVENLPPGARIITPDGREIKPGEEVEIELPEDVKEIYVILPDGKIVKVKVEEVEPEEESAGG [r13_441_TrROS_Hall]	4.12 ± 0.3 kcal/mol	3.71 ± 0.76 kcal/mol	4.31 ± 0.15 kcal/mol
SAGGSAGGSAGMKTTTLEVSTDPSGYTTTKTKIEIINENTPSISTSTVVTAVTPPAPPIASAGGSAGGSAGG [r11_830_JUSTAS]	0.133 ± 0.017 kcal/mol	0.195 ± 0.057 kcal/mol	0.122 ± 0.11 kcal/mol
SAGGSAGGWFYIMFPIPPGYKVEAEWKFPNGPKVKSEIHPDGPIMITIPPGMANMPDFEIKIEPSAGGSAGG [r6_237_TrROS]	2.35 ± 0.12 kcal/mol	3.2 ± 0.15 kcal/mol	3.77 ± 0.084 kcal/mol
SAGGSATKELVLEIAEEIAPRFQKEGWPIKRVTVKVVRTPDGQVTIPVRIRFPDGKPIMQWNITIPSAGGSA [r15_232_TrROS]	1.03 ± 0.055 kcal/mol	0.779 ± 0.17 kcal/mol	0.00828 ± 0.36 kcal/mol
SAGGSAGGSAGGSVSELPPISTKTTTTVTTTSDGTKVVYTTTTYSDGTTTTTSGPVPAASAGGSAGGSAGGS [r10_682_JUSTAS]	0.565 ± 0.049 kcal/mol	1.09 ± 0.13 kcal/mol	1.14 ± 0.067 kcal/mol
SAGGNRIMFIVNSPEEAERFANFIRKHLPPGMNLEIEIEPFPLKDNVPPDDPDYKNQPVYMVHITIPSAGGS [r16_795_TrROS]	3 ± 0.096 kcal/mol	3.73 ± 0.2 kcal/mol	4.13 ± 0.12 kcal/mol
SAGGMVRVTVVPTPGRAGEPVTLVIEHPDGTRTVPLPPDTSPEEARAAAERLAEEEGLDVAEVVFEASAGGS [r16_753_JUSTAS]	0.243 ± 0.07 kcal/mol	0.376 ± 0.098 kcal/mol	0.428 ± 0.086 kcal/mol
SAGGGSTTTYSIPEGPLTLEVTTVTVGDGTVKKTVVTTPEGKRTEIPPSNPITIPPNWTVTSSVTLTSAGGS [r16_669_JUSTAS]	-0.114 ± 0.12 kcal/mol	0.0118 ± 0.16 kcal/mol	0.0533 ± 0.16 kcal/mol
SAGGSAGGSETRVLVRPLDGAIVIEAYRRLPDGSWVLAERIVIPTKGDDPESIARAQEVIDKLSAGGSAGGS [r12_169_TrMRF]	3.76 ± 0.059 kcal/mol	4.38 ± 0.078 kcal/mol	4.67 ± 0.087 kcal/mol
SAMVTARVSDSVLRAYRLPDGYVRLVVFDPKTGEPVVEFVVPEDLITDIVEVGDKAVIHVDVKEEDLKLSAG [r14_755_TrMRF]	1.28 ± 0.043 kcal/mol	1.69 ± 0.077 kcal/mol	1.98 ± 0.064 kcal/mol
SAGGSALPEDATVKVEVTVVTLVYDPETGGFYLKVAKVEKEIRFDPKNGKLEVKVKKVEVKVFKLGSAGGSA [r15_517_TrMRF]	2.96 ± 0.21 kcal/mol	4.19 ± 0.33 kcal/mol	4.41 ± 0.17 kcal/mol
SAGGSAGGSAGGEKTIVISEEEAEKLAKELEKKGLTVERKPDGTLKVNGKEIRIIVVEPSAGGSAGGSAGGS [r10_930_TrROS_Hall]	0.758 ± 0.077 kcal/mol	0.814 ± 0.17 kcal/mol	0.858 ± 0.07 kcal/mol
SAGMPLYRIRVHPDIPDRIEITEVDAEDLPPGAVLKIRFRETGETVEVPLSDLDELLALPGIEEVELVSAGG [r19_302_TrROS_Hall]	0.305 ± 0.077 kcal/mol	0.841 ± 0.12 kcal/mol	1.11 ± 0.13 kcal/mol
SAGIEEEVRKLFPDRELEVKVKEKRLKAPNGVPVTLYEVTVTFPDGSRYKLTLTKTPNSVTLSVTPLDASAG [r14_28_JUSTAS]	2.73 ± 0.2 kcal/mol	3.18 ± 0.17 kcal/mol	3.34 ± 0.035 kcal/mol
SKKTVTIELYVPNMTPEQLRALLEALGYKVKKEEFDEDRGVVRLTVELPEDGTTITITIVRPPLPPGEKPSA [r9_1090_TrROS_Hall]	2.25 ± 0.12 kcal/mol	2.59 ± 0.12 kcal/mol	2.54 ± 0.046 kcal/mol
SAGGSAGGSARITVTPEGGYWRVTIKGPGKTRTFQFPMPANEAEEIVEELQNPPIDIDVEPVSAGGSAGGSA [r18_103_TrROS]	-0.328 ± 0.3 kcal/mol	-0.115 ± 0.14 kcal/mol	-0.142 ± 0.2 kcal/mol

Sequence	folding stability dG unfold [1]	folding stability dG unfold [2]	folding stability dG unfold [3]
SAGGSAGGSAGGPEVTLRLRLEVEVRVVVLKDGKLEEKTFRFELEVEVRFEPGMSLEELSAGGSAGGSAGGS [r10_633_TrROS_Hall]	3.23 ± 0.15 kcal/mol	3.91 ± 0.075 kcal/mol	4.09 ± 0.086 kcal/mol
SMGVKIEIDKEIIEKAIEEGKTFEADAKIKIEAYNPKTGKKIAEAEKIVKIRLEIEPPKAEPDPETGKPESA [r9_396_TrMRF]	0.661 ± 0.071 kcal/mol	0.633 ± 0.13 kcal/mol	0.36 ± 0.066 kcal/mol
SMKVYVKVLPPEYAVAYIYTDKKYEIPIPTTDLEEARAQIEEIVNEIEKRTGVKAEVEITEVAPDTKIPLSA [r9_786_JUSTAS]	0.182 ± 0.15 kcal/mol	0.74 ± 0.22 kcal/mol	0.928 ± 0.13 kcal/mol
SAGPWRIKEVDPDSYTIEIRFGDRPIEIKIPPGKEPSIMIEMDPDGHFQLTIRVPDRTRTFTIPFDDIRSAG [r5_500_TrROS]	0.86 ± 0.13 kcal/mol	0.674 ± 0.19 kcal/mol	0.591 ± 0.25 kcal/mol
SAGGSAGGSADPPRSVLKEERSPDGTTTYKLLEYPGERVLVVTRTPPDGTEEVVLIPEEELSAGGSAGGSAG [r3_167_JUSTAS]	0.322 ± 0.071 kcal/mol	0.231 ± 0.086 kcal/mol	0.0217 ± 0.25 kcal/mol
STLEQILDAIESMPPGWVFRIKIHHPNGEPHEHRFNMTYDDIKAQLENMIDHHPGQPIKIKIEFMPPEDFSA [r9_37_TrROS]	2.97 ± 0.11 kcal/mol	3.38 ± 0.064 kcal/mol	3.72 ± 0.077 kcal/mol
SAGGSAPSISYTDPNITTITVNPPYITTTRPDGTTTVYKVNNGGDITKLKTTPPVPPAAATDASVASAGGSA [r15_393_JUSTAS]	-0.17 ± 0.071 kcal/mol	0.148 ± 0.16 kcal/mol	0.421 ± 0.13 kcal/mol
SEVVFTLKDKPSPEELLKALAAVPGFSLETILKNTKVSPGKTGPKLTIKKEDFEKLEKENPEALEIIRSGSA [r9_160_TrMRF]	1.2 ± 0.026 kcal/mol	1.09 ± 0.089 kcal/mol	1.01 ± 0.11 kcal/mol
SAGGSAMTIYIKNKDGYIIKIEITKIEEIGPNYIKIKMKMEIINKNGEKKEIELELIFKVKNPEELSAGGSA [r15_1035_TrROS_Hall]	2.54 ± 0.33 kcal/mol	3.79 ± 0.28 kcal/mol	4 ± 0.099 kcal/mol
MEVKIKVEIVKVEEVEVKKKKDGKEEKFIRIEIKIEVEAKPGLSEEEIKKLAEELAKKLKELGLEVEVKKES [r1_305_TrROS_Hall]	0.993 ± 0.091 kcal/mol	1.96 ± 0.22 kcal/mol	2.15 ± 0.13 kcal/mol
SKVKPGEKVEYVEITITVDVKSVEELEKKLRELLGVKEVKVTVTEENGKLTLTIVVKSKEEADKLKELLSSA [r9_764_TrROS_Hall]	1.22 ± 0.031 kcal/mol	1.47 ± 0.16 kcal/mol	1.73 ± 0.066 kcal/mol
SAGGKIKIKSVEVQPNPDGMRKVTLEFQDGGKEHKVEIYVHPGGIMISIPNGKTRTIPWDDLDDIKLSAGGS [r16_593_TrROS]	0.52 ± 0.093 kcal/mol	1.01 ± 0.18 kcal/mol	1.22 ± 0.15 kcal/mol
SAGGSAGGMIYADNPEEFKKVVKELLKKHPKNKPVFAVLTGSNSKYVIYLSGDKLEKVLAFPVPSAGGSAGG [r6_288_TrMRF]	0.961 ± 0.028 kcal/mol	1.38 ± 0.052 kcal/mol	1.62 ± 0.051 kcal/mol
SAGGMEEVIKELAKSLGVTKILPESEAKKLSSSVPNALAAVKLPDGSYVLIKRNSDGSVSSIKYKLESAGGS [r16_686_JUSTAS]	1.14 ± 0.018 kcal/mol	1.54 ± 0.1 kcal/mol	1.83 ± 0.087 kcal/mol
SFHVERDPEDNTIYIHFPPGMDPLELAKSLLKELREQQDDGPIKIHVHYGDWVFEIDIKKGKIEVRPPGESA [r9_224_TrROS]	1.41 ± 0.1 kcal/mol	1.23 ± 0.18 kcal/mol	1.19 ± 0.16 kcal/mol
SAGGSMPLDVSSELLEESTDPSDPNRRTTLERRFSPDGTVTLVTRTFDPATGTTEVQETTLPPGLPSAGGSA [r2_73_JUSTAS]	0.529 ± 0.06 kcal/mol	1.14 ± 0.099 kcal/mol	1.49 ± 0.14 kcal/mol
SAKVYRTKDGKEVKVEKKKVKVKTIEIEIEIEMPKELEEKVKKLAEELAKKLAEELNLPPGAKIKITVRSAG [r14_453_TrROS_Hall]	2.54 ± 0.06 kcal/mol	2.34 ± 0.17 kcal/mol	2.04 ± 0.051 kcal/mol
SEKPPKVKIVSVEYNPETGTVTITVEVEPGQKVRIFVRNSDGSVQEIDLESKTITINLPPGAEIVRIEVLSA [r9_113_TrROS_Hall]	3.9 ± 0.23 kcal/mol	4.09 ± 0.14 kcal/mol	4.16 ± 0.12 kcal/mol
SAGGMGLEELAKLSPEEIARRLAAEAKAAAAAAGTPDAAVTLEVTLEDKPIVVEVGADGTIRRVELGSAGGS [r16_431_JUSTAS]	0.442 ± 0.1 kcal/mol	0.922 ± 0.063 kcal/mol	1.16 ± 0.024 kcal/mol
SAGGSAGGSASVVADENKIVVTFPNGKVVELDLSDPKKAKEKLLALKPLDIPPITLELVPPASAGGSAGGSA [r18_68_JUSTAS]	-0.139 ± 0.071 kcal/mol	0.572 ± 0.12 kcal/mol	0.842 ± 0.041 kcal/mol
SAGGMIEIEYNPDQGYFRITVWPMNPKNGKPKSKEIPIPFEGDPEEALDKVKDLIDDHPGYHVDIEPYSAGG [r13_284_TrROS]	0.657 ± 0.068 kcal/mol	1.05 ± 0.14 kcal/mol	1.27 ± 0.13 kcal/mol
